Source: patent publication US20250066499A1 (SUNSHINE GUOJIAN PHARMACEUTICAL SHANGHAI, published 2025)
Substitutions are numbered along the chain they refer to.

Columns and labels:
CD73-ND-N187A = molecular target: T1, CD73-ND-N187A (human, UniProt P21589 27-317); assay: ELISA; decline multiple of EC50 against CD73-ND
T1 construct: Alanine mutant of CD73-ND
T1 sequence: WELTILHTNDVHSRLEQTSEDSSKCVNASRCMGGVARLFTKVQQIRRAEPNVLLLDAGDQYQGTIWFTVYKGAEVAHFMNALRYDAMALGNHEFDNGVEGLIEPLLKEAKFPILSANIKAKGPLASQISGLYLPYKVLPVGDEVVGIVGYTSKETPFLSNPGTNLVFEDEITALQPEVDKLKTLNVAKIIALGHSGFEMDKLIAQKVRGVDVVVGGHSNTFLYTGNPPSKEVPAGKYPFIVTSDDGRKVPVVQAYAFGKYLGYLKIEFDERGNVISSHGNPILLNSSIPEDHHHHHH
Description: (§1) The ELISA plates were coated with SA protein diluted to 1.5 μg/mL in coating buffer (50 mM carbonate coating buffer, pH 9.6) and incubated overnight at 4° C. The supernatant was discarded, and the plates were washed three times with PBST. Then, 5% skimmed milk powder prepared with PBS was added for blocking and the plates were incubated for 2 h at 37° C. After washing the plates once with PBST, CD73-biotin protein (prepared by biotinylating CD73-His protein according to the EZ-Link NHS-Biotin Reagent instructions) was diluted to 0.5 μg/mL and added at 100 μL/well for incubation at room temperature for 1 h. The plates were washed three times with PBST, and the prepared murine-derived monoclonal antibodies against human CD73 were serially diluted with 1% BSA buffer prepared with PBST and added to the ELISA plates at 100 μl/well. The plates were incubated at 37° C. for 1 h. After washing the plates three times with PBST, HRP-labeled goat anti-mouse IgG secondary antibody was added and the plates were incubated for 30 min at 37° C. After washing the plates three times with PBST, the residual droplets were patted dry on absorbent paper as much as possible. Then, 100 μl of TMB color developing solution was added to each well, and the plates were incubated in the dark at room temperature for 5 min for color development. Subsequently, 50 μl of 2M H₂SO₄ stop solution was added to each well to terminate the substrate reaction. The OD values were read at 450 nm using a multimode microplate reader to analyze the binding ability of the tested antibodies to the target antigen human CD73-His.
(§2) Referring to the experimental method in Example 3, the affinity of 48A11-HuV33 for various mutant proteins of CD73-ND was determined. The SA protein was diluted to 1 μg/mL for coating the ELISA plates, and the biotinylated CD73 protein (CD73-biotin) was used at a concentration of 0.1 μg/mL.

CD73-ND-his = molecular target: T2, CD73-ND-his (human, UniProt P21589 27-317); assay: ELISA; decline multiple of EC50 against CD73-ND
T2 construct: Biotinylated and captured on streptavidin in the ELISA
T2 sequence: T1 sequence with A187N
Description: as §1, §2

CD73-ND-T183A = molecular target: T3, CD73-ND-T183A (human, UniProt P21589 27-317); assay: ELISA; decline multiple of Top against CD73-ND
T3 construct: Alanine mutant of CD73-ND
T3 sequence: T1 sequence with T183A, A187N
Description: as §1, §2

CD73-ND-L181A = molecular target: T4, CD73-ND-L181A (human, UniProt P21589 27-317); assay: ELISA; decline multiple of Top against CD73-ND
T4 construct: Alanine mutant of CD73-ND
T4 sequence: T1 sequence with L181A, A187N
Description: as §1, §2

CD73-ND-E143A = molecular target: T5, CD73-ND-E143A (human, UniProt P21589 27-317); assay: ELISA; decline multiple of Top against CD73-ND
T5 construct: Alanine mutant of CD73-ND
T5 sequence: T1 sequence with E143A, A187N
Description: as §1, §2

CD73-ND-K182A = molecular target: T6, CD73-ND-K182A (human, UniProt P21589 27-317); assay: ELISA; decline multiple of Top against CD73-ND
T6 construct: Alanine mutant of CD73-ND
T6 sequence: T1 sequence with K182A, A187N
Description: as §1, §2

B1: 48A11-HuV33 (antibody, human IgG4, V domains shown)
VH: QVQLVQSGAEVKKPGASVKVSCKASGYTFTSYWMHWVRQAPGQGLEWIGEINPSIGRTNYNEKFKSRVTLTRDTSTSTAYMELSSLRSEDTAVYYCARRVYGTMDYWGQGTLVTVSS
VL: DIQMTQSPSSLSASVGDRVTITCKASQDINSYLSWFQQKPGKSPKLLIYRANIWVDGVPSRFSGSGSGQDYTFTISSLQPEDIATYYCLQYDELYTFGQGTKVEIK
notes: Humanized
Ratio(EC50) (CD73-ND-N187A): 0.9 fold | Ratio(EC50) (CD73-ND-his): 0.8 fold | Ratio(Top) (CD73-ND-T183A): 1 fold | Ratio(Top) (CD73-ND-L181A): 1.9 fold | Ratio(Top) (CD73-ND-E143A): 1.1 fold | Ratio(Top) (CD73-ND-K182A): 1 fold
